Broadly, the koff is a measure of how fast the partners let go of each other.

What all share (assay): SPR
Background: Surface plasmon resonance follows binding to a sensor surface in real time, without labels.

Assay [1] addresses latent TGF‐β binding protein‐4, short isoform (LTBP4S), recombinant full-length human (human).
Assay [2] deals with T1, fibulin‐4 (FBLN4), recombinant full-length human (human, UniProt O95967 24-443).
T1 sequence (looked up): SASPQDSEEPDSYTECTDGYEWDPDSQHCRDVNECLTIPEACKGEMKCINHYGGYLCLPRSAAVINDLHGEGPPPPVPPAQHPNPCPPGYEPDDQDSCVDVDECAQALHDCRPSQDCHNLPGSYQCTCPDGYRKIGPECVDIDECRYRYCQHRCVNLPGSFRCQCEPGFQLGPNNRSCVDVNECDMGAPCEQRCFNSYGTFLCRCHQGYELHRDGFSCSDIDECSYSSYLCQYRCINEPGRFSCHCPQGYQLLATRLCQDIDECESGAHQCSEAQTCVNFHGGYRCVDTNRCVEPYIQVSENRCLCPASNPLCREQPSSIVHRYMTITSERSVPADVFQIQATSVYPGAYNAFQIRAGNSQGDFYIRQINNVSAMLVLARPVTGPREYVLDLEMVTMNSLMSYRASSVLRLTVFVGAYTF

Assay [3] concerns the target latent TGF‐β binding protein‐4, long isoform (LTBP4L), recombinant full-length human (human, UniProt Q8N2S1-1 28-1624).

As for “recombinant syndecan-3 ectodomain (SDC3‐ED) (from UniProt O75056 48-387) (domain or fragment)”, the off-rate (koff) in assay [1] was determined as 6.3e-05 s⁻¹.

B1: recombinant syndecan-3 ectodomain (SDC3‐ED) (domain or fragment, human, UniProt O75056 48-387, looked up)
chain: QRWRSENFERPVDLEGSGDDDSFPDDELDDLYSGSGSGYFEQESGIETAMRFSPDVALAVSTTPAVLPTTNIQPVGTPFEELPSERPTLEPATSPLVVTEVPEEPSQRATTVSTTMATTAATSTGDPTVATVPATVATATPSTPAAPPFTATTAVIRTTGVRRLLPLPLTTVATARATTPEAPSPPTTAAVLDTEAPTPRLVSTATSRPRALPRPATTQEPDIPERSTLPLGTTAPGPTEVAQTPTPETFLTTIRDEPEVPVSGGPSGDFELPEEETTQPDTANEVVAVGGAAAKASSPPGTLPKGARPGPGLLDNAIDSGSSAAQLPQKSILERKEVLV
Take B1: the values for the koff in assay [2] and in assay [3] were 0.00082 s⁻¹ and 5.5e-05 s⁻¹, respectively.

B2: recombinant syndecan-2 ectodomain (SDC2‐ED) (domain or fragment, human, UniProt P34741 19-144, looked up)
chain: ESRAELTSDKDMYLDNSSIEEASGVYPIDDDDYASASGSGADEDVESPELTTSRPLPKILLTSAAPKVETTTLNIQNKIPAQTKSPEETDKEKVHLSDSERKMDPAEEDTNVYTEKHSDSLFKRTE
As to B2, the koff in assay [2] turned out to be 0.00041 s⁻¹.

Values taken from publication PMC11960800 (The FASEB Journal, 2025).
